Test [1] deals with Mouse Neural Stem Cells. Briefly: Neuronal differentiation (β-III Tubulin) of adult mouse neural stem cells. The class given is cell-based. The settings on record: 1 nM, 7 days. The procedure:
Adult mouse neurosperes were dissociated with trypsin (Gibco) into single cells and transferred to poly-D-Lysine plates (BD) in the above culture medium, without growth factors, supplemented with 1% Fetal Calf Serum (Gibco). The cells were incubated over night to adhere to the plate. The medium was changed to culture medium, without growth factors, supplemented with 1 nM PDGF-AA or PDFG-BB (both from R&D Systems). The medium with new substance added every second day. The cells were incubated for a total of 7 days.
The cells were washed two times with PBS (Gibco) and fixed for 15 min RT with 4% Formaldehyde (Sigma) and permeabilized 20 min RT in 0.1% Triton X-100 (Sigma) in PBS. After fixation and permeabilization the cells were labelled with mouse monoclonal anti-β-III Tubulin (1:500 Promega). Primary antibody was visualized with anti mouse Texas-Red (1:100 Vector Laboratories). All antibodies were diluted in PBS with 0.1% Triton X-100.
The cells were washed twice with PBS (Gibco) and lysed with 200 ul lysis buffer/well. The lysis buffer contained PBS, 0.1% Triton X-100, 1 mM EDTA and 1 tab1. Protease inhibitor cocktail (Roche). The samples were run on a 4-12% Bis-Tris gel (Novex) under reduced conditions with MOPS buffer (Novex) and blotted onto a Hybond ECL nitrocellulose membrane (Amersham Biotech). Blocked in 5% ECL-Block (Amersham Biotech) in PBS+0.1% Tween 20 (Sigma). The membranes were labelled with mouse monoclonal anti-β-III Tubulin (1:5000 Promega). The primary antibody was detected using a secondary antibody anti-mouse-HRP (1:10000 Amersham Biotech) and ECL Plus+ Western Blot Detection Kit (Amersham Biotech). All antibodies were diluted in PBS with 0.1% Triton X-100, 1% ECL Block. The signal were then captured on ECL Hyper Film (Amersham Biotech)

Test [2] has as its system MPTP-lesioned mice. Briefly: MPTP-induced neuronal loss in substantia nigra pars compacta, intraventricular infusion. Format: in vivo, mouse. To be noted: for Total number of tyrosine hydroxylase neurons in the bilateral substantia nigra pars compacta: PDGF-BB intraventricularly 0.1 μg/h/kg for three days, two months later, Mean ± S.E.M. The procedure: Ten-week old male C57B1/6 mice (25 g, B&K Universal, Stockholm, Sweden).
PDGF-BB (Sigma) was administered directly into the right lateral ventricle of the brain using osmotic pumps (Alza 1003D, delivery of 1.0 μl/h for three days) and brain infusion kits. The drug solution was prepared as follows: 10 μg PDGF-BB was dissolved in 10 μl 1M HAc, after which pH was adjusted to 7.4 by adding 10 μl NaOH. A buffer was added (100 ml 0.01M PBS containing 5 mg/ml BSA and 20 mM Hepes) to a final volume of 4,000 μl. Each minipump was connected to a brain infusion needle, which was stereotaxically placed in the right lateral ventricle of the mouse brain in deeply anesthetized mice (chloral hydrate 60 mg/kg intraperitoneal). The pump was placed subcutaneously in the neck. The delivery rate of PDGF-BB was 0.1 μg/h/kg body weight. ^3H-thymidine (6.7 Ci/ml, NEN) was given for three days via another Alzet pump which was placed intraperitoneally.
One hour after the pumps were inserted, the neurotoxin 1-methyl-4-phenyl-1,2,3,6-tetrahydropyridine (MPTP HCl, Sigma) was given subcutaneously (40 mg/kg).
Two months later, animals were anesthetized with choral hydrate (60 mg/kg ip) and sacrificed by intracardial infusion of fixative (4% paraformaldehyde in 0.1 M phosphate buffered saline (PBS) containing 0.4% picric acid. After dissection, postfixation in the same fixative continued for 1.5 h followed by cryoprotection. After dissection of the midbrain, the two sides of the brain were separated with a cut along the ventro-dorsal midline and the tissue was postfixed in the same solution and cryoprotected in sucrose. Cryostat sections were prepared as follows: a randomly chosen half-brain was cut into 40 μm thick sections through the full rostro-caudal extension of substantia nigra pars compacta. A randomly chosen series of every 6th section was taken to perform free-floating immunohistochemistry using a polyclonal anti-tyrosine hydroxylase antibody (diluted 1:400, Pel-Freez) in order to identify dopaminergic neurons in the tissue. To visualize the antibody, the avidin-biotin peroxidase kit (Vector) with 0.03% DAB as chromagen was used adding 0.01% H2O2. Cresyl violet was employed to identify the nucleolus, Nissl substance and glia cells (Chan et al., 1997; Walters et al., 1999). The other half of the brain was sectioned in 10 μm thick sections on glass and a randomly chosen series of every 6th section was immunohistochemically stained for tyrosine hydroxylase in dopaminergic neurons as previously described. To detect incorporation of the ^3H-thymidine nucleotide in brain cells, the sampled slides were dipped in NTB2 nuclear track emulsion (Kodak) and stored in light-tight boxes at −20° C. for four weeks. […]

B1: PDGF-BB: human recombinant PDGF-BB, platelet derived growth factor B-chain homodimer (protein)
chain: SLGSLTIAEPAMIAECKTRTEVFEISRRLIDRTNANFLVWPPCVEVQRCSGCCNNRNVQCRPTQVQLRPVQVRKIEIVRKKPIFKKATVTLEDHLACKCETVAAARPVT
Regarding B1, the “number of β-III Tubulin positive cells in culture” value in test [1] (compared to the control, FIG. 5) was “significantly increase the number of β-III Tubulin positive cells”. In addition, in test [1] (compared with the control, FIG. 6), the “levels of β-III Tubulin protein (Western blot)” value is given as “significantly increased levels of β-III Tubulin protein”. Further, in test [1] (FIG. 5 and FIG. 6), the “neuronal differentiation of cultured mouse neural stem cells/progenitors” value is recorded as “trigger neuronal differentiation”. In test [2] (MPTP lesioned mice after infusion of PDGF), the “cell number in the substantia nigra” value is “double”. In addition, the results for the “Total number of tyrosine hydroxylase neurons in the bilateral substantia nigra pars compacta” value in test [2] (MPTP-lesioned (40 mg/kg s.c.)) and in test [2] (no MPTP lesion) were 10,000 ± 200 and 12,300 ± 300, respectively. The “MPTP-induced loss of tyrosine hydroxylase positive nerve cells” value in test [2] (after an MPTP lesion) is reported as “completely counteracted”.

For the origin of these results see patent US7981863B2, “Treatment of Parkinson's disease with PDGF” (Neuronova AB, priority 2001, dated 2011).
